Data on two molecules can be found in publication PMC9388138.

Common to all, as to experiment: flow cytometry on cells; T cells stably expressing the IL13-based CARs titrated with recombinant biotinylated receptor (IL13Rα1-Fc, IL13Rα2-Fc or mouse IL13Rα1); dose-response curves, three independent trials
(A flow cytometer gives signals particle by particle.)

For test [1], the target named is IL13 E12Y CAR (IL13 E12Y - IgG4(EQ)-Fc linker - CD28 transmembrane and costimulatory domain - CD3ζ) on T cells.
In test [2] the target is IL13 WT CAR (IL13 - IgG4(EQ)-Fc linker - CD28 transmembrane and costimulatory domain - CD3ζ) on T cells.
Test [3] concerns the target IL13 D7 CAR (IL13 D7 - IgG4(EQ)-Fc linker - CD28 transmembrane and costimulatory domain - CD3ζ) on T cells.
Test [4] concerns the target IL13 C4 CAR (IL13 C4 - IgG4(EQ)-Fc linker - CD28 transmembrane and costimulatory domain - CD3ζ) on T cells.

B1: Recombinant human IL13Rα2-Fc chimera (Fc fusion)
chain: DTEIKVNPPQDFEIVDPGYLGYLYLQWQPPLSLDHFKECTVEYELKYRNIGSETWKTIITKNLHYKDGFDLNKGIEAKIHTLLPWQCTNGSEVQSSWAETTYWISPQGIPETKVQDMDCVYYNWQYLLCSWKPGIGVLLDTNYNLFYWYEGLDHALQCVDYIKADGQNIGCRFPYLEASDYKDFYICVNGSSENKPIRSSYFTFQLQNIVKPLPPVYLTFTRESSCEIKLKWSIPLGPIPARCFDYEIEIREDDTTLVTATVENETYTLKTTNETRQLCFVVRSKVNIYCSDDGIWSEWSDKQCWEGEDLSKKTLLR
modifications: biotin (in the titration of CAR T cells)
Turning to B1, the Kd in test [1] came out at 1.8 nM; in test [2] it was 1.7 nM; in test [3], 4.2 nM; in test [4], 29 nM.

B2: Recombinant human IL13Rα1-Fc chimera (Fc fusion)
chain: GGGGAAPTETQPPVTNLSVSVENLCTVIWTWNPPEGASSNCSLWYFSHFGDKQDKKIAPETRRSIEVPLNERICLQVGSQCSTNESEKPSILVEKCISPPEGDPESAVTELQCIWHNLSYMKCSWLPGRNTSPDTNYTLYYWHRSLEKIHQCENIFREGQYFGCSFDLTKVKDSSFEQHSVQIMVKDNAGKIKPSFNIVPLTSRVKPDPPHIKNLSFHNDDLYVQWENPQNFISRCLFYEVEVNNSQTETHNVFYVQEAKCENPEFERNVENTSCFMVPGVLPDTLNTVRIRVKTNKLCYEDDKLWSNWSQEMSIGKKRNST
modifications: biotin (in the titration of CAR T cells)
For B2, the Kd in test [1] and in test [2] was 34 nM in each case.

As usually defined, the Kd is the constant that tells how readily two partners part at equilibrium.
